Substrate in data set [1]: NC(=O)c1ccc[n+]([C@@H]2O[C@H](COP(=O)(O)O)[C@@H](O)[C@H]2O)c1
Kind of data set: purified protein. The settings on record: 50 mM sodium phosphate pH 7.5, 37 °C. Format: biochemical, Agrobacterium fabrum.

Data set [2] deals with the molecule itself. The experiment in a line: SEC; gel filtration on Superdex 200 10/300 GL of the purified enzyme; about 41 kDa against about 19 kDa by SDS-PAGE.

B1: AtCinA (NMN deamidase) (Agrobacterium fabrum str. C58) (protein)
chain: MSLFPGDIEELARRIITDFTPLGLMVSTAESCTGGLIAGALTEIAGSSAVVDRGFVTYTNDAKRDMLGVGTETLTTFGAVSRQTALQMAHGALYRSRANFAVAVTGIAGPGGGSAEKPVGLVHLATKARNGNVLHHEMRYGDIGRTEIRLATVRTALEMLIALNQAGSV
notes: full length (169 residues, synthetic 510 bp gene), C-terminal His tag (pET24b), E. coli Rosetta 2(DE3); about 19 kDa subunit, 41 kDa homodimer
For the protein B1, in data set [1], the Michaelis-Menten constant (Km) turned out to be 24 ± 2 µM, the turnover number (kcat) is 8.7 ± 0.2 s⁻¹ and the specificity constant (kcat/Km) worked out at 362000 M⁻¹ s⁻¹.

B2: Agrobacterium tumefaciens nicotinamide mononucleotide (NMN) deamidase (enzyme)
chain: MSLFPGDIEELARRIITDFTPLGLMVSTAESCTGGLIAGALTEIAGSSAVVDRGFVTYTNDAKRDMLGVGTETLTTFGAVSRQTALQMAHGALYRSRANFAVAVTGIAGPGGGSAEKPVGLVHLATKARNGNVLHHEMRYGDIGRTEIRLATVRTALEMLIALNQAGSV
notes: NMN deamidase CinA of Agrobacterium tumefaciens, UniProt A9CJ26, 169 amino acids; 510 bp synthetic gene cloned between NheI and XhoI of pET24b; Cloning at the NheI and XhoI sites may add a few vector residues; also called AtCinA; CinA
Turning to B2, in data set [2], the “stoichiometry N” value was determined as 2.

One may read the Km as the concentration of substrate that gives half-maximal velocity. Broadly, the kcat is the maximal rate divided by the concentration of active sites. Usually kcat/Km stands for the second-order rate constant that governs catalysis at low substrate concentration. In general, stoichiometry N refers to a count of units in the complex or per binding partner.

For the origin of these results see PMC5384747, “Characterization and mutational analysis of a nicotinamide mononucleotide deamidase from Agrobacterium tumefaciens showing high thermal stability and catalytic efficiency” (PLoS ONE, 2017).
